Measurements as given in the supplement of paper PMC12764529.
± gives the half width of the 95% confidence interval.

Assays:
[1] = folding stability dG unfold from trypsin proteolysis; higher = more stable
Summary of the method: (§1)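 How resistant each design was to proteolysis was captured as K50, inferred by Bayesian fitting of sequencing counts. Unfolding free energy was then derived relative to a sequence-predicted unfolded-state K50 and a shared folded-state K50, per protease or combined. Digestion used trypsin and chymotrypsin at 11 threefold-diluted concentrations plus a no-protease condition, on mini-proteins under 80 residues without cysteine in a PA-tagged cDNA display construct. Designs were kept only when AlphaFold2 dimer inter-PAE was above 15.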

[2] = folding stability dG unfold from chymotrypsin proteolysis; higher = more stable
Summary of the method: as §1

[3] = folding stability dG unfold (combined trypsin and chymotrypsin); higher = more stable
Summary of the method: as §1

SAGGSVEVEPLPNGLLRVTTVFSESKTPILRKLTYKDENGKPLGTKLELLPEEVEVESVTELLPPELLSAGG [r13_848_JUSTAS]
folding stability dG unfold [1]: -1.07 ± 0.29 kcal/mol | folding stability dG unfold [2]: 0.606 ± 0.11 kcal/mol | folding stability dG unfold [3]: 0.256 ± 0.079 kcal/mol

SAGGGMESRTLTLPKEEIEKVKEEIKKASNLDIKVTTKKLPNGEYELTITFSNPEDVEKFEKKLGIESAGGS [r16_172_JUSTAS]
folding stability dG unfold [1]: 1.99 ± 0.16 kcal/mol | folding stability dG unfold [2]: 3.05 ± 0.059 kcal/mol | folding stability dG unfold [3]: 2.71 ± 0.15 kcal/mol

SAGGSEPEPLRVSEITDIKESVLPNGTLKATVTLKLPEKDEEVEIEVEASSEEEIEEAIEEIVKLESAGGSA [r2_248_JUSTAS]
folding stability dG unfold [1]: 0.678 ± 0.089 kcal/mol | folding stability dG unfold [2]: 0.0425 ± 0.35 kcal/mol | folding stability dG unfold [3]: 0.482 ± 0.21 kcal/mol

SAGGSAGGSAGGMLVDPSTNTVTINLPPNTTLTFNYPDSTLTVTVPANETLTVTFPLTSSAGGSAGGSAGGS [r10_464_JUSTAS]
folding stability dG unfold [1]: 2.19 ± 0.075 kcal/mol | folding stability dG unfold [2]: 0.947 ± 0.049 kcal/mol | folding stability dG unfold [3]: 1.67 ± 0.1 kcal/mol

SAGGSAMIEIEINGKKYKIEIVKVEEKDGKVKVKIKIKDKETGKEIEIEIEMPKEELEKLLKEILSSAGGSA [r15_944_TrROS_Hall]
folding stability dG unfold [1]: 2.79 ± 0.27 kcal/mol | folding stability dG unfold [2]: 3.97 ± 0.28 kcal/mol | folding stability dG unfold [3]: 3.65 ± 0.48 kcal/mol

SAGMKVPVTVKMKAEKEEELEKVIKEIKEETGFEFEVEKNPETKEYTVKVYATPEVVEILKKKGFDVESAGG [r19_306_TrMRF]
folding stability dG unfold [1]: 1.9 ± 0.14 kcal/mol | folding stability dG unfold [2]: 3.2 ± 0.081 kcal/mol | folding stability dG unfold [3]: 2.77 ± 0.24 kcal/mol

SAGGSAGGMVIEGRIKIVSPDGGEKEIPVVLFIPESFPDANLEELAEAIAKEILPPGYKADFEGSAGGSAGG [r6_821_TrMRF]
folding stability dG unfold [1]: 0.601 ± 0.065 kcal/mol | folding stability dG unfold [2]: 1 ± 0.023 kcal/mol | folding stability dG unfold [3]: 0.879 ± 0.17 kcal/mol

SAGGSAGGSSPVPVKVSANSVEPGESSSSNINIPKEALEKDSLTPEELKKILQKQGPNVTITGSAGGSAGGS [r20_221_JUSTAS]
folding stability dG unfold [1]: -0.423 ± 0.086 kcal/mol | folding stability dG unfold [2]: 0.124 ± 0.049 kcal/mol | folding stability dG unfold [3]: -0.0407 ± 0.23 kcal/mol

SAGKMYLIVIKVDGKEYVIVIPEEEMSEEEIRKLISEELGISEEEVEIVEIVPVEPGESVEEALKKALESAG [r5_900_TrROS_Hall]
folding stability dG unfold [1]: 2.77 ± 0.14 kcal/mol | folding stability dG unfold [2]: 4.23 ± 0.074 kcal/mol | folding stability dG unfold [3]: 3.94 ± 0.15 kcal/mol

SAGGSAGGKKFKPGQVVLDPKTKELYVIKGEVTVKEDGSLSIKVEKVKLPKPKKLTKEQLEKLKSAGGSAGG [r6_771_TrROS_Hall]
folding stability dG unfold [1]: 0.687 ± 0.067 kcal/mol | folding stability dG unfold [2]: 0.613 ± 0.23 kcal/mol | folding stability dG unfold [3]: 0.783 ± 0.16 kcal/mol

SAGGSAIKVSTSPSDVSVSKVPLPNGETLTIEVSSNGETTVTKTSPTPGTPTTTTVPGASVEELLESAGGSA [r15_406_JUSTAS]
folding stability dG unfold [1]: 0.331 ± 0.034 kcal/mol | folding stability dG unfold [2]: 0.974 ± 0.02 kcal/mol | folding stability dG unfold [3]: 0.762 ± 0.031 kcal/mol

SANPIPLEKANITVSYTSPDGLVVTANITSVTYDPSTGKYTFTFTGTLTDPSTGTTTPVSFTVSTVTLSSAG [r14_825_JUSTAS]
folding stability dG unfold [1]: 2.68 ± 0.1 kcal/mol | folding stability dG unfold [2]: 4.25 ± 0.099 kcal/mol | folding stability dG unfold [3]: 3.79 ± 0.13 kcal/mol

SAGGIRIKPGQILVIDIERPTGNERKIIIPMDDPEEVIEQLGFPPENFRIKDIEVVPMPPEQAKDFLESAGG [r13_850_TrROS]
folding stability dG unfold [1]: -0.0896 ± 0.28 kcal/mol | folding stability dG unfold [2]: 0.585 ± 0.1 kcal/mol | folding stability dG unfold [3]: 0.321 ± 0.17 kcal/mol

SMTIERHPDKLTVRVPAAFSTVPEVVRFLKELGFELPPGVKDVRVEDVEPGARVVRVTVHFDDPEALERLSA [r9_820_TrMRF]
folding stability dG unfold [1]: 1.97 ± 0.024 kcal/mol | folding stability dG unfold [2]: 1.58 ± 0.049 kcal/mol | folding stability dG unfold [3]: 1.81 ± 0.031 kcal/mol

SAGGSAGGSEEELKKLLDNIKEVKVVENENGEKYVVFTVTDKNGKKITIVAKSPEARELAKKLSAGGSAGGS [r12_466_TrROS_Hall]
folding stability dG unfold [1]: 1.45 ± 0.066 kcal/mol | folding stability dG unfold [2]: 2.35 ± 0.046 kcal/mol | folding stability dG unfold [3]: 1.96 ± 0.11 kcal/mol

SAGGSAGLPEAIAEAIARELQAEPGYELDVEAEVDPETGTLHIRARVRLPDDDTWFELEITVPLPASAGGSA [r15_464_TrMRF]
folding stability dG unfold [1]: 1.75 ± 0.084 kcal/mol | folding stability dG unfold [2]: 3.22 ± 0.12 kcal/mol | folding stability dG unfold [3]: 2.93 ± 0.13 kcal/mol

SAGGRIVEAAKEAGLDGVDLKEIRPLPDGGVEIRILPPPGMPEEAAAEAAERIERALREEFPDTRIDTESAG [r5_101_TrMRF]
folding stability dG unfold [1]: -0.835 ± 0.33 kcal/mol | folding stability dG unfold [2]: 0.207 ± 0.056 kcal/mol | folding stability dG unfold [3]: -0.209 ± 0.31 kcal/mol

SAGGSGGLRVELPFLLPDGYRVTLTVNPETGEITEIRVEPIDAVPPEPEVLPVVGFDPRYGVPLVLSAGGSA [r2_78_TrMRF]
folding stability dG unfold [1]: 1.12 ± 0.026 kcal/mol | folding stability dG unfold [2]: 0.344 ± 0.14 kcal/mol | folding stability dG unfold [3]: 0.812 ± 0.12 kcal/mol

SAMEKPLETLEIPIPGLPVTVKITIYPSHIEKAKESGIPEITVEALLTIELPDGSKVEKKIPLTVKIPGSAG [r14_100_JUSTAS]
folding stability dG unfold [1]: 1.58 ± 0.043 kcal/mol | folding stability dG unfold [2]: 1.67 ± 0.042 kcal/mol | folding stability dG unfold [3]: 1.61 ± 0.11 kcal/mol

SAGGSAGGSAGGFVLTFTLPDSVVRITLPEDANPEEIKQRLLEEHGVPIELRLIPPSNPLSAGGSAGGSAGG [r11_805_JUSTAS]
folding stability dG unfold [1]: 0.726 ± 0.12 kcal/mol | folding stability dG unfold [2]: 0.664 ± 0.38 kcal/mol | folding stability dG unfold [3]: 0.782 ± 0.2 kcal/mol
